Here are results for one substance from US20020110853A1.

This test concerns the target FLAG-TWEAKR, expressed on transfected HUVEC (human) (UniProt Q9NP84). In words: cell-based or functional assay.

FLAG-TWEAKR, expressed on transfected HUVEC (human), sequence (Q9NP84 28-129): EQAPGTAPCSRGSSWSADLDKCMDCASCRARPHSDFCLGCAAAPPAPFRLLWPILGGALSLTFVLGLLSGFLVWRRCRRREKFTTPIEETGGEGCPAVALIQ

Substance M2 anti-FLAG monoclonal antibody yielded a BrdU incorporation of FLAG-TWEAKR expressing HUVEC, against goat anti-mouse IgG alone of 3 fold and a BrdU incorporation of FLAG-TWEAKR expressing HUVEC, against vector-only transfected HUVEC with the cross-linking complex of 6 fold.
